Consider three proteins from article PMC4810252.

Common to all, as to conditions: glycan lost; control: wild type
A short description of series [1]: HBsAg ELISA of supernatant; 293T and Huh7. In general terms: ELISA stands for enzyme-linked immunosorbent assay.
Series [2] is described as follows: confocal co-localisation, transient and stable 293T.
Series [3] can be described thus: sucrose gradient fractionation, stable 293T, Western blot. In general terms: A western blot detects proteins with antibodies after separation by electrophoresis.
Series [4] in a line: confocal co-localisation, stable 293T.
Series [5] in a line: confocal co-localisation, transfected 293T.

B1: BST-2/tetherin: N65/92A (protein)
parent chain: MASTSYDYCRVPMEDGDKRCKLLLGIGILVLLIIVILGVPLIIFTIKANSEACRDGLRAVMECRNVTHLLQQELTEAQKGFQDVEAQAATCNHTVMALMASLDAEKAQGQKKVEELEGEITTLNHKLQDASAEVERLRRENQVLSVRIADKKYYPSSQDSSSAAAPQLLIVLLGLSALLQ
On to B1, for which the “other: restriction of virus release” value in series [1] is “no change”. The localisation_or_trafficking entry in series [2] is listed as “increases”; in series [3], “changes”.

B2: BST-2/tetherin: N65A (protein)
parent chain: B1 parent chain
B2: the results for the localisation_or_trafficking entry in series [4], in series [5] and in series [3] were “no change”, “no change” and “changes”, respectively.

B3: BST-2/tetherin: N92A (protein)
parent chain: B1 parent chain
B3: the localisation_or_trafficking entry is “no change” in series [5] and “changes” in series [3].
